Target: T1, Avitag-His-TEV-mEos3.1 (Lobophyllia hemprichii EosFP, …, point mutant)
T1 construct: also called purified mEos3.1; pET-Biotin-His6-mEos3.1; source: E. coli BL21 (DE3), co-expressed with BirA, purified (Ni-NTA, anion exchange)
T1 chain: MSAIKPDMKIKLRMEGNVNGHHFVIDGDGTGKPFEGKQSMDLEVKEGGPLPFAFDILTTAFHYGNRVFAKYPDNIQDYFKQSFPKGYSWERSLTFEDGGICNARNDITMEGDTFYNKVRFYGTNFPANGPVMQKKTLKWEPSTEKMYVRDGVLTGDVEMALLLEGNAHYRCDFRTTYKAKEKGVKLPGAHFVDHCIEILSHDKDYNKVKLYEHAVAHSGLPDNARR
Assay: BLI
Conditions: both partners purified

Kd: 76.8 nM
B1: tag free mEosNb (VHH)
VHH: QVQLQESGGGLVQAGGSLRLSCAASGNISQLVYMGWYRQAPGKERELVAGITHGGITYYADSVKGRFTISRDNAKNTVYLQMNSLKPEDTAVYYCAAFQWRSDDVGYLNLGPLEYWGQGTQVTVSS
notes: also called mEos3Nb; nanobody against mEos3; not shown: Avitag, C-terminal, cleaved; His, C-terminal, cleaved

Reference: paper doi:10.1101/2025.01.01.631016, “A tool to dissect heterotypic determinants of homotypic protein phase behavior” (bioRxiv, 2025)
